# Assay results taken from patent publication US20190100602A1 (INSERM INSTITUT NATIONAL DE LA SANT ET DE LA RECHERCHE M …, published 2019).
# Like-named read-outs stand apart in the source and are kept apart here.
# B1: KB-AT-1123 (bispecific antibody)
# chain: QVQLQESGGGLVQAGGSLRLSCAASGRTFRNYVMGWFRQAPGKDPEFIAGINRSGAITYYGDSVKGRFTISRDNAKNTVSLQMNSLEPEDTAVYYCAAGETTWSIRRDDYDYWGQGTQVTVSSGGGSGGGSGGGSGGGSQVQLQESGGGLVQAGGSLRLSCAASGRTFRNYVMGWFRQAPGKDPEFIAGINRSGAITYYGDSVKGRFTISRDNAKNTVSLQMNSLEPEDTAVYYCAAGETTWSIRRDDYDYWGQGTQVTVSSGGGSGGGSGGGSGGGSQVQLVQSGGGLVQAGGSLRLSCAASGRTFNNNGMGWFRQAPGKEREFVAAISWSGGSTYYADSVKGRYIMSRDNAKNTVYLQMNSLKPEDTAVYYCAARTRYNSGLFSRNYDYWGQGTQVTVSSGGGSGGGSGGGSGGGSQVQLQESGGGLVQPGGSLRLSCAASALTFSSRAWAWYRQAPGKQRELVASITGGGTTNYADSVKGRFTISRDNAKNTVYLQMNSLKPEDTAVHYCNGYRYTYAWGQGTQVTQVTVSS
# B2: KB-AT-113 (bispecific antibody)
# chain: QVQLQESGGGLVQAGGSLRLSCAASGRTFRNYVMGWFRQAPGKDPEFIAGINRSGAITYYGDSVKGRFTISRDNAKNTVSLQMNSLEPEDTAVYYCAAGETTWSIRRDDYDYWGQGTQVTVSSGGGSGGGSGGGSGGGSQVQLQESGGGLVQAGGSLRLSCAASGRTFRNYVMGWFRQAPGKDPEFIAGINRSGAITYYGDSVKGRFTISRDNAKNTVSLQMNSLEPEDTAVYYCAAGETTWSIRRDDYDYWGQGTQVTVSSGGGSGGGSGGGSGGGSQVQLQESGGGLVQPGGSLRLSCAASALTFSSRAWAWYRQAPGKQRELVASITGGGTTNYADSVKGRFTISRDNAKNTVYLQMNSLKPEDTAVHYCNGYRYTYAWGQGTQVTQVTVSS
# B3: KB-AT-001/005 (other)
# chain: QVQLQESGGGLVQAGGSLRLSCAASGRTFRNYVMGWFRQAPGKDPEFIAGINRSGAITYYGDSVKGRFTISRDNAKNTVSLQMNSLEPEDTAVYYCAAGETTWSIRRDDYDYWGQGTQVTVSSGGGSGGGSGGGSGGGSEVQLVESGGGLVQPGGSLRLSCEASGRDFNDAALGWSRQVPGKARETVAMITSGGVRNYAETVKDRFTISRDNAKNTVYLDMNNLQPDDTGVYYCKADSFKGDYDTSWYLYWGQGTQVTVSS
# B4: KB-AT-002/003 (bispecific antibody)
# chain: QVQLQESGGGLVQAGGSLRLSCAASGRTFNNNGMGWFRQAPGKEREFVAAISWSGGSTYYADSVKGRYIMSRDNAKNTVYLQMNSLKPEDTAVYYCAARTRYNSGLFSRNYDYWGQGTQVTVSSGGGSGGGSGGGSGGGSQVQLQESGGGLVQPGGSLRLSCAASALTFSSRAWAWYRQAPGKQRELVASITGGGTTNYADSVKGRFTISRDNAKNTVYLQMNSLKPEDTAVHYCNGYRYTYAWGQGTQVTVSS
# B5: KB-AT-112 (bispecific antibody)
# chain: QVQLQESGGGLVQAGGSLRLSCAASGRTFRNYVMGWFRQAPGKDPEFIAGINRSGAITYYGDSVKGRFTISRDNAKNTVSLQMNSLEPEDTAVYYCAAGETTWSIRRDDYDYWGQGTQVTVSSGGGSGGGSGGGSGGGSQVQLQESGGGLVQAGGSLRLSCAASGRTFRNYVMGWFRQAPGKDPEFIAGINRSGAITYYGDSVKGRFTISRDNAKNTVSLQMNSLEPEDTAVYYCAAGETTWSIRRDDYDYWGQGTQVTVSSGGGSGGGSGGGSGGGSQVQLVQSGGGLVQAGGSLRLSCAASGRTFNNNGMGWFRQAPGKEREFVAAISWSGGSTYYADSVKGRYIMSRDNAKNTVYLQMNSLKPEDTAVYYCAARTRYNSGLFSRNYDYWGQGTQVTVSS
# B6: KB-AT-003 (VHH)
# VHH: QVQLVQSGGGLVQPGGSLRLSCAASALTFSSRAWAWYRQAPGKQRELVASITGGGTTNYADSVKGRFTISRDNAKNTVYLQMNSLKPEDTAVHYCNGYRYTYAWGQGTQVTVSS
# notes: Monovalent anti-antithrombin single-domain antibody; also called sdAb KB-AT-003
# B7: KB-AT-115 (other)
# chain: QVQLQESGGGLVQAGGSLRLSCAASGRTFRNYVMGWFRQAPGKDPEFIAGINRSGAITYYGDSVKGRFTISRDNAKNTVSLQMNSLEPEDTAVYYCAAGETTWSIRRDDYDYWGQGTQVTVSSGGGSGGGSGGGSGGGSQVQLQESGGGLVQAGGSLRLSCAASGRTFRNYVMGWFRQAPGKDPEFIAGINRSGAITYYGDSVKGRFTISRDNAKNTVSLQMNSLEPEDTAVYYCAAGETTWSIRRDDYDYWGQGTQVTVSSGGGSGGGSGGGSGGGSEVQLVESGGGLVQPGGSLRLSCEASGRDFNDAALGWSRQVPGKARETVAMITSGGVRNYAETVKDRFTISRDNAKNTVYLDMNNLQPDDTGVYYCKADSFKGDYDTSWYLYWGQGTQVTVSS
# B8: KB-AT-001/003 (bispecific antibody)
# chain: QVQLQESGGGLVQAGGSLRLSCAASGRTFRNYVMGWFRQAPGKDPEFIAGINRSGAITYYGDSVKGRFTISRDNAKNTVSLQMNSLEPEDTAVYYCAAGETTWSIRRDDYDYWGQGTQVTVSSGGGSGGGSGGGSGGGSQVQLQESGGGLVQPGGSLRLSCAASALTFSSRAWAWYRQAPGKQRELVASITGGGTTNYADSVKGRFTISRDNAKNTVYLQMNSLKPEDTAVHYCNGYRYTYAWGQGTQVTQVTVSS
# B9: KB-AT-001/002 (bispecific antibody)
# chain: QVQLQESGGGLVQAGGSLRLSCAASGRTFRNYVMGWFRQAPGKDPEFIAGINRSGAITYYGDSVKGRFTISRDNAKNTVSLQMNSLEPEDTAVYYCAAGETTWSIRRDDYDYWGQGTQVTVSSGGGSGGGSGGGSGGGSQVQLVQSGGGLVQAGGSLRLSCAASGRTFNNNGMGWFRQAPGKEREFVAAISWSGGSTYYADSVKGRYIMSRDNAKNTVYLQMNSLKPEDTAVYYCAARTRYNSGLFSRNYDYWGQGTQVTVSS
# Experiments:
# [1] = biological target: T1, human antithrombin (human, UniProt P01008 33-464); experiment: cell-based or functional assay
# [2] = biological target: T1, human antithrombin; experiment: cell-based or functional assay; remark: listed apart in the source
# [3] = biological target: T1, human antithrombin; experiment: cell-based or functional assay; remark: listed apart in the source
# [4] = biological target: T2, simian antithrombin (simian); experiment: ELISA, sdAb coated, plasma 1/4, bound antithrombin probed with polyclonal anti-antithrombin; grade by OD
# T2 construct: Native protein in plasma diluted 1/4; also called simian AT; antithrombin in simian plasma
# Protocol: (§1) sdAbs KB-AT-001, -002. -003, -004, -005, -006, and -007 were immobilized (10 microgram/ml) in 10 mM NaHCO₃, 50 mM Na2CO3 (pH 9.5) in a volume of 50 microliter in half-well microtiter plates (Greiner Bio-One, Les Ulis, France) for 16 h at 4° C. As a positive control, polyclonal anti-antithrombin antibodies (MATIII-EIA kit, Affinity biologicals, Ancaster Canada) were immobilized in a similar fashion. As a negative control, the anti-von Willebrand sdAb KB-VWF-006 was immobilized. After washing the wells three times with 100 microliter/well using Tris-buffered saline (pH 7.6) supplemented with 0.1% Tween-20 (TBS-T), wells were blocked with 100 microliter/well of TBS-T supplemented with 3% bovine serum albumin (BSA) for 30 min at 37° C. Wells were washed as described above, and subsequently the following plasma preparations (diluted ¼ in TBS-T/3% BSA, 100 microliter per well, 2 hours at 37° C.) were added to each of the immobilized sdAbs and both types of control wells: rabbit plasma, canine plasma, simian plasma, bovine plasma, porcine plasma, rat plasma, murine plasma and human plasma.
# (§2) Wells were then washed three times with 100 microliter/well using TBS-T. Bound antithrombin was probed with peroxidase-labeled polyclonal anti-antithrombin antibodies (MATIII-EIA kit, Affinity biologicals, Ancaster Canada; diluted 1/100) for 2 hours at 37° C. with 50 microliter per well. Wells were then washed three times with 100 microliter/well using TBS-T. Residual peroxidase activity was detected by measuring peroxidase-mediated hydrolysis of 3,3′,5,5′-tetramethylbenzidine.
# (§3) Negative binding (−) was defined as optical density (OD) being ≤0.1, moderate positive binding (+) was defined as OD being >0.1 and <0.5, strongly positive binding (++) was defined as OD being ≥0.5. […] All plasma preparations had moderate or strongly positive binding to the positive control (polyclonal anti-antithrombin antibodies).
# [5] = biological target: T3, murine antithrombin (mouse, UniProt P32261 33-465); experiment: as above
# T3 construct: also called mouse antithrombin; murine AT
# Protocol: as §1, §2, §3
# [6] = biological target: T1, human antithrombin; experiment: as above
# Protocol: as §1, §2, §3
# [7] = biological target: T4, canine antithrombin (canine); experiment: as above
# T4 construct: Native protein in plasma diluted 1/4; also called canine AT; antithrombin in canine plasma
# Protocol: as §1, §2, §3
# [8] = biological target: T5, rat antithrombin (rat, UniProt Q8VHJ4); experiment: as above
# T5 construct: Native protein in plasma diluted 1/4; also called rat AT; antithrombin in rat plasma
# Protocol: as §1, §2, §3
# [9] = biological target: T1, human antithrombin; experiment: cell-based or functional assay; remark: listed apart in the source
# [10] = biological target: T1, human antithrombin; experiment: cell-based or functional assay; remark: listed apart in the source
# [11] = biological target: T1, human antithrombin; experiment: BLI (Octet-QK), sdAb coupled to sensor, antithrombin 12.5-50 ug/ml; apparent KD
# Protocol: The interaction between sdAbs KB-AT-001, KB-AT-002, KB-AT-003 and KB-AT-006 versus human antithrombin was further analyzed via biolayer-interferometry analysis using Octet-QK equipment in order to determine apparent dissociation constants (KD,app). To this end, sdAbs KB-AT-001, KB-AT-002, KB-AT-003 and KB-AT-006 were diluted in 0.1 M Mes (pH 5.0) to a concentration of 200 microgram/ml for coupling to EDC/NHS-activated amine-reactive biosensors (Fort6bio, Menlo Park, Calif., USA). Sensors were rehydrated in 0.2 ml 0.1 M MES, pH 5.0 for 300 sec. Sensors were then activated via incubation with 0.1 ml 0.2 M EDC/0.095 M NHS mixture for 300 sec and subsequently incubated with 0.1 ml sdAb-solution for 600 sec. […] Following this association phase, sensors were transferred to wells containing PBS-T and incubated for 900 sec, allowing dissociation of the antithrombin-sdAb complex. Obtained data were subsequently analyzed using Octet-QK data analysis software (Origin vs 4) to estimate KD,app.
# [12] = biological target: T6, porcine antithrombin (porcine); experiment: ELISA, sdAb coated, plasma 1/4, bound antithrombin probed with polyclonal anti-antithrombin
# T6 construct: Native protein in plasma diluted 1/4; also called porcine AT; antithrombin in porcine plasma
# Protocol: as §1, §2, §3
# [13] = biological target: T7, rabbit antithrombin (rabbit); experiment: as above
# T7 construct: Native protein in plasma diluted 1/4; also called rabbit AT; antithrombin in rabbit plasma
# Protocol: as §1, §2, §3
# [14] = biological target: T8, bovine antithrombin (bovine, UniProt P41361 33-465); experiment: as above
# T8 construct: Native protein in plasma diluted 1/4; also called bovine AT; antithrombin in bovine plasma
# Protocol: as §1, §2, §3
# T1 sequence (P01008 33-464 limits assumed): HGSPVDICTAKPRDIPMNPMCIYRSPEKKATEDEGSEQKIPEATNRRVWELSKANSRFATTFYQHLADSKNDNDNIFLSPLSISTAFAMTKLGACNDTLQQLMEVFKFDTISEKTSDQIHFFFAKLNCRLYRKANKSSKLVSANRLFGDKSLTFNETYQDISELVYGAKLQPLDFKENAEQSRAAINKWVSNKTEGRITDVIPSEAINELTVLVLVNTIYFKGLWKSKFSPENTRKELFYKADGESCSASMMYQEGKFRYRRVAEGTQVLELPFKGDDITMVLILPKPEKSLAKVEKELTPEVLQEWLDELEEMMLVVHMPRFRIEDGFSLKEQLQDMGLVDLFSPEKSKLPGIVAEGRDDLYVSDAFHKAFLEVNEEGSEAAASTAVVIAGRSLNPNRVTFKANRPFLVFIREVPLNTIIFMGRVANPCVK
# T3 sequence (P32261 33-465 limits assumed): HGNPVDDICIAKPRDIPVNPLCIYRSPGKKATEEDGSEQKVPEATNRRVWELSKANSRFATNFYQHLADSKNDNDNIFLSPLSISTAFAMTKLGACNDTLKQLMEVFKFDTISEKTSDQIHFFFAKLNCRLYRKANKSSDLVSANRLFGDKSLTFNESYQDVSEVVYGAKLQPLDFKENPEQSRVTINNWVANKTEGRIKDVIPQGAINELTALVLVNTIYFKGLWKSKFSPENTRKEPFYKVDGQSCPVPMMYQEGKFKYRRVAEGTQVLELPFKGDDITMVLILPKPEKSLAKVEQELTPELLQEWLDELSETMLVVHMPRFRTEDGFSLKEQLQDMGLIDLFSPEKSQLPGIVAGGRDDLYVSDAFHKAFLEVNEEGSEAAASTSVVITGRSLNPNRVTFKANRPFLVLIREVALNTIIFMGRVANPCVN
# T8 sequence (P41361 33-465): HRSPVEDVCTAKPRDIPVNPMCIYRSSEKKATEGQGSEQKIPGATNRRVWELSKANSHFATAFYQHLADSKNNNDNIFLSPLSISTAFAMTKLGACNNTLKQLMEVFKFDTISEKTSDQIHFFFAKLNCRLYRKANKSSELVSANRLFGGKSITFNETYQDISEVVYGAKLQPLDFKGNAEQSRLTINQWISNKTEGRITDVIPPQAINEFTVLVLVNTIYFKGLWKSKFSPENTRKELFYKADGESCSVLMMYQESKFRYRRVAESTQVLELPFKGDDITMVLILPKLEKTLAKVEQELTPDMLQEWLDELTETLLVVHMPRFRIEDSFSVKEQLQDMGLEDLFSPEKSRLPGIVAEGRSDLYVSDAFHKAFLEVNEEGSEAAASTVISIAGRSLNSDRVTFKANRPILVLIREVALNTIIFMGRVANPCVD
binder,measurement,setting,value
B1,"% antithrombin neutralization (thrombin amidolytic activity on S-2238, with unfractionated heparin)",[1],99%
B2,"% antithrombin neutralization (thrombin amidolytic activity on S-2238, with unfractionated heparin)",[1],97%
B3,"% antithrombin neutralization (thrombin amidolytic activity on S-2238, with unfractionated heparin)",[2],28%
same,"% antithrombin neutralization (factor Xa amidolytic activity on S-2765, with LMW-heparin)",[3],34%
B4,"% antithrombin neutralization (thrombin amidolytic activity on S-2238, with unfractionated heparin)",[2],47%
same,"% antithrombin neutralization (factor Xa amidolytic activity on S-2765, with LMW-heparin)",[3],68%
B5,"% antithrombin neutralization (thrombin amidolytic activity on S-2238, with unfractionated heparin)",[1],29%
B6,OD,[4],≥ 0.5 od
same,OD,[5],≥ 0.5 od
same,OD,[6],≥ 0.5 od
same,OD,[7],0.1 to 0.5 od
same,OD,[8],0.1 to 0.5 od
same,"percentage of neutralization of antithrombin-mediated factor Xa inhibition, with LMW-heparin",[9],< 15%
same,"percentage of neutralization of antithrombin-mediated thrombin inhibition, with unfractionated heparin",[9],< 5%
same,"% antithrombin neutralization (thrombin amidolytic activity on S-2238, no heparin)",[10],67%
same,Kd,[11],400 pM
same,OD,[12],≤ 0.1 od
same,OD,[13],≤ 0.1 od
same,OD,[14],≤ 0.1 od
B7,"% antithrombin neutralization (thrombin amidolytic activity on S-2238, with unfractionated heparin)",[1],26%
B8,"% antithrombin neutralization (thrombin amidolytic activity on S-2238, with unfractionated heparin)",[2],56%
same,"% antithrombin neutralization (factor Xa amidolytic activity on S-2765, with LMW-heparin)",[3],62%
B9,"% antithrombin neutralization (thrombin amidolytic activity on S-2238, with unfractionated heparin)",[2],30%
same,"% antithrombin neutralization (factor Xa amidolytic activity on S-2765, with LMW-heparin)",[3],57%
